Measured values published in PMC3953403, “Drosophila SNAP-29 Is an Essential SNARE That Binds Multiple Proteins Involved in Membrane Traffic” (PLoS ONE, 2014).

Molecular target: T1, GST-dSNAP-29 (Drosophila, UniProt Q9W1I8 1-284)
T1 construct: Drosophila SNAP-29 (CG11173, ubisnap/usnp), full-length cDNA amplified from EST clone LD17127 and subcloned into pGEX-KG; predicted mass 32 kDa; Vector pGEX-KG; also called GST-SNAP-29; Drosophila SNAP-29; source: coupled to glutathione beads
T1 sequence (looked up): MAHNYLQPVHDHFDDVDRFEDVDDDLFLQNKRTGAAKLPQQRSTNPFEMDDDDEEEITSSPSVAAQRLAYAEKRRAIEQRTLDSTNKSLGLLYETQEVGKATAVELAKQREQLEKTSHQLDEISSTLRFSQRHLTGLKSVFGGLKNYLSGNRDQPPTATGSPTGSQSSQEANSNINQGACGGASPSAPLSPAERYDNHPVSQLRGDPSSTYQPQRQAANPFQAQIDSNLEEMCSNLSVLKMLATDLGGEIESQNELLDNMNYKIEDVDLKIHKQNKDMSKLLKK
Assay: pull-down; 0.5 mg GST fusion or GST on 120 uL glutathione beads, incubated with pre-cleared S2 cell lysate (PLC or NP40 lysis buffer, 0.1% gelatin, 0.1% BSA); washes 50 mM HEPES pH 7.5, 150 mM NaCl, 2 mM EDTA; western blot
Conditions: for percent recovered from the lysate: one partner purified

Row | Molecule | percent pulled down from the lysate [%] | percent recovered from the lysate [%]
1 | DAP160, endogenous (natural protein) | 15 | 
2 | dEHD1, endogenous (natural protein) | 12 | 
3 | dsyntaxin1, endogenous (natural protein, UniProt Q24547 1-291, looked up, Drosophila syntaxin 1, endogenous in S2 cells (pull-down) and in embryos (co-IP); also called dSyx1; source: endogenous, S2 cell lysate; endogenous, Oregon R embryo lysate) MTKDRLAALHAAQSDDEEETEVAVNVDGHDSYMDDFFAQVEEIRGMIDKVQDNVEEVKKKHSAILSAPQTDEKTKQELEDLMADIKKNANRVRGKLKGIEQNIEQEEQQNKSSADLRIRKTQHSTLSRKFVEVMTEYNRTQTDYRERCKGRIQRQLEITGRPTNDDELEKMLEEGNSSVFTQGIIMETQQAKQTLADIEARHQDIMKLETSIKELHDMFMDMAMLVESQGEMIDRIEYHVEHAMDYVQTATQDTKKALKYQSKARRKKIMILICLTVLGILAASYVSSYFM |  | 6
4 | dsyntaxin 16, endogenous (natural protein, UniProt Q9VR90 1-352, looked up, Drosophila syntaxin 16, endogenous in S2 cells (pull-down) and in embryos (co-IP); also called dSyx16; dSyx 16; source: endogenous, S2 cell lysate; endogenous, Oregon R embryo lysate) MTSRNLTEVFVIMRNNASKNRNHYDDRRGSDAERLLKHSVREAEEGLELQDDYGTPPAWLDKFEEAQYTMSKIKPKLDELGSLHARHLLRPAFDDQRDDECDIEVLSQIVSKLITSTHRHIQCVRSSIGVGSKMEQCLTVNAVHCALLQLQELTVKFRASQNAYLLQLNSREERSQKYFDDGGGAGAGDVFTNVELGEQSAENFVDSFDNFLQPPAEGKSGNGYLFEDDEQAIDDHFQRPPASRMTQQQLLLFEEENTRVAQHREQEVTKIVKSIYDLNDIFKDLGHMVQEQGTVLDRIDYNVEQTQTRVSEGLRQLHKAEMYQRKNRKMCVILVLAAVTFFMLLLLILTKL |  | 4
5 | dSNAP (Drosophila soluble NSF attachment protein), endogenous (natural protein, Drosophila (endogenous in S2 cells), UniProt Q23983 1-292, looked up, Drosophila SNAP (soluble NSF attachment protein), endogenous in Schneider S2 cells; also called Drosophila SNAP; source: endogenous, S2 cell lysate) MGDNEQKALQLMAEAEKKLTQQKGFLGSLFGGSNKVEDAIECYQRAGNMFKMSKNWTKAGECFCEAATLHARAGSRHDAGTCYVDASNCYKKVDVESAVNCLMKSIDIYTDMGRFTMAAKHHQSIAEMYESDPNNLAKSIQHYEQAADYFKGEESVSSANKCMLKVAQYAAQLEDYEKAISIYEQVAASSLESSLLKYSAKEYFFRAALCHLSVDLLNAQHAIEKYAQQYPAFQDSREFKLIKVLCENLEEQNIEGFTEAVKDYDSISRLDQWYTTILLRIKKAADEDPDLR |  | ~7
